Here are results for 80 sequences from the supplement of paper PMC10724198.

± gives the standard deviation of the averaged measurements.
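Further: PSI is a weighted mean of sequencing reads over stability bins, variants kept only with over 10 reads, mCherry proximal and sfGFP distal, peptide attached via GGGS linker.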

The subject of this data set is Saccharomyces cerevisiae. The data set can be described thus: protein stability index of tFT-peptide fusion (C-terminal peptide) (PSI (0-1 scale)); higher = more stable (slower turnover). The conditions noted are these: genetic background: wild type; temperature: 30 C.
TLSPAPSPTPPP showed a protein stability index of 0.678 ± 0.048.

TLSPFRLFGPIS gave a protein stability index of 0.722 ± 0.092.

In turn, TLSSPPPPPPPP returned a protein stability index of 0.663 ± 0.046.

The sequence TLSTSPPPCHPL had a protein stability index of 0.667 ± 0.06.

Regarding TMCRGGVSSQDL, the protein stability index is 0.662 ± 0.057.

For TMEKKAKKRIKK, the protein stability index is 0.682 ± 0.23.

TMHFVWVLGILE yielded a protein stability index of 0.524 ± 0.014.

Sequence TNKKKNRNKKAK yielded a protein stability index of 0.657 ± 0.073.

The sequence TNLYGWGGERTV registered a protein stability index of 0.688 ± 0.0092.

Consider TNVRMGCELEEK, for which the protein stability index is 0.716 ± 0.14.

TNYWDRGSIQPK registered a protein stability index of 0.668 ± 0.021.

Turning to TPAIPTTLMSLR, the protein stability index was found to be 0.67 ± 0.063.

In turn, TPLHRIGGLHLK displayed a protein stability index of 0.653 ± 0.0075.

TPPLALPAPCST returned a protein stability index of 0.679 ± 0.035.

Consider TPPLPRFHAPQP, for which the protein stability index stood at 0.665 ± 0.017.

TPPLRPLLYSNA had a protein stability index of 0.53 ± 0.059.

Take TPPPAPRPPLPS: the protein stability index worked out at 0.719 ± 0.069.

For the sequence TPPPLRTASLLP, the protein stability index turned out to be 0.67 ± 0.1.

For TPPSPDPSPPNT, the protein stability index was found to be 0.789 ± 0.046.

Consider TPSPHTPLPLAP, for which the protein stability index worked out at 0.708 ± 0.09.

For TPSPTRCPTPTR, the protein stability index was 0.6 ± 0.025.

As to TPTLPPPSPTFH, the protein stability index was 0.666 ± 0.021.

TPTSPPLPLTIS showed a protein stability index of 0.579 ± 0.016.

Take TPWLRGVVGPGS: the protein stability index was 0.671 ± 0.083.

In turn, TQGLSSYYRHKI came in with a protein stability index of 0.686 ± 0.061.

TQLSSVVVGGRR had a protein stability index of 0.669 ± 0.015.

In turn, TRCDSSGGSAAP returned a protein stability index of 0.68 ± 0.094.

The sequence TRDATESLVERV returned a protein stability index of 0.694 ± 0.02.

The sequence TRFFFLLCRRSL yielded a protein stability index of 0.57 ± 0.082.

For TRGAGAKYSSVR, the protein stability index is 0.721 ± 0.019.

As for TRGKETESIDSR, the protein stability index is 0.685 ± 0.036.

For TRICFPRFPPAP, the protein stability index was 0.703 ± 0.044.

TRIGNGHPLGCG had a protein stability index of 0.718 ± 0.024.

Sequence TRKRIKKHSMNK registered a protein stability index of 0.672 ± 0.085.

The sequence TRLVYFYLGRDI showed a protein stability index of 0.656 ± 0.054.

Regarding TRRRGGAREGPY, the protein stability index is 0.758 ± 0.064.

For TRSLPTLSPPPS, the protein stability index came out at 0.659 ± 0.086.

Consider TRSPTVAMRPKE, for which the protein stability index worked out at 0.676 ± 0.036.

On to TRTQTLAGILGG, for which the protein stability index amounted to 0.677 ± 0.029.

For TRTRSMTQLVPL, the protein stability index came out at 0.716 ± 0.068.

On to TRYGVRVPGRFR, for which the protein stability index was 0.678 ± 0.018.

Sequence TSARQGFFASLV yielded a protein stability index of 0.646 ± 0.049.

The sequence TSCPPAHLPPPP yielded a protein stability index of 0.659 ± 0.046.

The sequence TSGDFLPSHSFL showed a protein stability index of 0.702 ± 0.074.

For TSPGLPLPLPSP, the protein stability index amounted to 0.716 ± 0.0048.

Take TSPLSPPLPSFR: the protein stability index came out at 0.696 ± 0.021.

Consider TSPLSPSGPQSS, for which the protein stability index came out at 0.86 ± 0.14.

TSPPPPSRPPSH yielded a protein stability index of 0.691 ± 0.029.

Sequence TSPSLSALLSFV showed a protein stability index of 0.715 ± 0.073.

Regarding TSPVCPARPRQL, the protein stability index was determined as 0.646 ± 0.042.

TSSASVCASSVQ registered a protein stability index of 0.588 ± 0.023.

In turn, TSSTEKTKTKRP showed a protein stability index of 0.809 ± 0.17.

Turning to TTITTRSCALSS, the protein stability index stood at 0.707 ± 0.015.

TTMNELPKSIKK returned a protein stability index of 0.739 ± 0.042.

Sequence TTPPPLPSDPLR registered a protein stability index of 0.622 ± 0.026.

In turn, TTRACVTRGCSV had a protein stability index of 0.623 ± 0.051.

Take TTRTAAKKIHKD: the protein stability index turned out to be 0.74 ± 0.055.

In turn, TTSQGHLCVAPR registered a protein stability index of 0.6827 ± 0.0038.

The sequence TTSSRDYIELLL displayed a protein stability index of 0.729 ± 0.016.

In turn, TTTFPFGRLVLS yielded a protein stability index of 0.68 ± 0.028.

Consider TTVLRTFGDKQF, for which the protein stability index was found to be 0.715 ± 0.00088.

On to TTVRTVSLIDRI, for which the protein stability index was found to be 0.689 ± 0.059.

For the sequence TVAEGKKMRGKV, the protein stability index turned out to be 0.672 ± 0.036.

Regarding TVLKCECEYFLH, the protein stability index was determined as 0.654 ± 0.019.

Turning to TVPGKDEGEESV, the protein stability index was determined as 0.696 ± 0.037.

The sequence TVRAPLDSARCP came in with a protein stability index of 0.739 ± 0.017.

As for TVWSSPPSRRSS, the protein stability index came out at 0.699 ± 0.043.

In the case of TWAVTGDLLITR, the protein stability index amounted to 0.815 ± 0.15.

With TWCSFHFYSFWC, the protein stability index is 0.578 ± 0.01.

In turn, TWIPSFACQSLQ had a protein stability index of 0.70274 ± 0.00029.

The sequence TYLSSPAPLLPL registered a protein stability index of 0.694 ± 0.033.

TYQNAKAEPTRV yielded a protein stability index of 0.671 ± 0.038.

With VACKGCVVACRV, the protein stability index amounted to 0.527 ± 0.045.

Turning to VACLVGVRGSWV, the protein stability index came out at 0.66683 ± 0.00048.

The sequence VAESPGWAAGVD registered a protein stability index of 0.689 ± 0.015.

On to VAGDGYDVMDNG, for which the protein stability index is 0.553 ± 0.029.

In the case of VAGFPSPVVLGW, the protein stability index was 0.607 ± 0.085.

As for VALFIRITKHEY, the protein stability index stood at 0.549 ± 0.027.

The sequence VAPPVLCRCSLR registered a protein stability index of 0.6481 ± 0.0052.

In turn, VARVGFRETLSF registered a protein stability index of 0.703 ± 0.05.
